The target in the test is T1, MAGEA1 peptide on HLA-C*07:02 (human).
T1 peptide: VRFFFPSL
Description: killing.

B1: MAGEA1 TCR 32-39 (TCR, V domains shown)
Valpha: DQQVKQNSPSLSVQEGRISILNCDYTNSMFDYFLWYKKYPAEGPTFLISISSIKDKNEDGRFTVFLNKSAKHLSLHIVPSQPGDSAVYFCAASAQNNDMRFGAGTRLTVKP
Vbeta: NAGVMQNPRHLVRRRGQEARLRCSPMKGHSHVYWYRQLPEEGLKFMVYLQKENIIDESGMPKERFSAEFPKEGPSILRIQQVVRGDSAAYFCASSPSYEQYFGPGTRLTVT
Turning to B1, the binding result was “recognises”.

B2: MAGEA1 TCR 32-41 (TCR, V domains shown)
Valpha: TQLLEQSPQFLSIQEGENLTVYCNSSSVFSSLQWYRQEPGEGPVLLVTVVTGGEVKKLKRLTFQFGDARKDSSLHITAAQPGDTGLYLCAGDESISYGKLTFGQGTILTVHP
Vbeta: DAGVIQSPRHEVTEMGQEVTLRCKPISGHDYLFWYRQTMMRGLELLIYFNNNVPIDDSGMPEDRFSAKMPNASFSTLKIQPSEPRDSAVYFCASSFLGWNEKLFFGSGTQLSVL
B2: the binding result was “recognises”.

Source of the values: patent publication US20230270832A1 (published 2023).
